Assay results as given in patent US20090170763A1 (KENJI KANGAWA, published 2009).
Square brackets hold non-standard residues; d marks the D form. Ends that are not written are not given here. * marks the point of attachment. Trt = c1ccc(C(c2ccccc2)(c2ccccc2)*)cc1; Octanoyl = CCCCCCCC(=O)*; Aib = CC(C)(N)C(=O)O; Octyl = CCCCCCCC*

B1: [Lys^7]-Ghrelin (1-7)-amide (peptide)
peptide: GSS(Octanoyl)FLSK-NH2
modifications: N-terminus assumed
SMILES: CCCCCCCC(=O)OC[C@H](NC(=O)[C@H](CO)NC(=O)CN)C(=O)N[C@@H](Cc1ccccc1)C(=O)N[C@@H](CC(C)C)C(=O)N[C@@H](CO)C(=O)N[C@@H](CCCCN)C(N)=O
B2: [Aib^1,His^2,Ser^3(Octyl),Lys^5]-Ghrelin (1-5)-amide (peptide)
peptide: [Aib]HS(Octyl)FK-NH2
modifications: N-terminus assumed
SMILES: CCCCCCCCOC[C@H](NC(=O)[C@H](Cc1c[nH]cn1)NC(=O)C(C)(C)N)C(=O)N[C@@H](Cc1ccccc1)C(=O)N[C@@H](CCCCN)C(N)=O
B3: [Aib^1,His^2,^DSer^3(Octyl),^DPhe^4,Lys^5]-Ghrelin (1-5)-amide (peptide)
peptide: [Aib]H[dS](Octyl)[dF]K-NH2
modifications: N-terminus assumed
SMILES: CCCCCCCCOC[C@@H](NC(=O)[C@H](Cc1c[nH]cn1)NC(=O)C(C)(C)N)C(=O)N[C@H](Cc1ccccc1)C(=O)N[C@@H](CCCCN)C(N)=O
B4: [Lys^8]-Ghrelin (1-8)-amide (peptide)
peptide: GSS(Octanoyl)FLSPK-NH2
modifications: N-terminus assumed
SMILES: CCCCCCCC(=O)OC[C@H](NC(=O)[C@H](CO)NC(=O)CN)C(=O)N[C@@H](Cc1ccccc1)C(=O)N[C@@H](CC(C)C)C(=O)N[C@@H](CO)C(=O)N1CCC[C@H]1C(=O)N[C@@H](CCCCN)C(N)=O
B5: [Arg^8]-Ghrelin (1-8)-amide (peptide)
peptide: GSS(Octanoyl)FLSPR-NH2
modifications: N-terminus assumed
SMILES: CCCCCCCC(=O)OC[C@H](NC(=O)[C@H](CO)NC(=O)CN)C(=O)N[C@@H](Cc1ccccc1)C(=O)N[C@@H](CC(C)C)C(=O)N[C@@H](CO)C(=O)N1CCC[C@H]1C(=O)N[C@@H](CCCNC(=N)N)C(N)=O
B6: [Lys^6]-Ghrelin (1-6)-amide (peptide)
peptide: GSS(Octanoyl)FLK-NH2
modifications: N-terminus assumed
SMILES: CCCCCCCC(=O)OC[C@H](NC(=O)[C@H](CO)NC(=O)CN)C(=O)N[C@@H](Cc1ccccc1)C(=O)N[C@@H](CC(C)C)C(=O)N[C@@H](CCCCN)C(N)=O
B7: [Lys^5]-Ghrelin (1-5)-amide (peptide)
peptide: GSS(Octanoyl)FK-NH2
modifications: N-terminus assumed
SMILES: CCCCCCCC(=O)OC[C@H](NC(=O)[C@H](CO)NC(=O)CN)C(=O)N[C@@H](Cc1ccccc1)C(=O)N[C@@H](CCCCN)C(N)=O
B8: [^DPhe^4,Lys^5]-Ghrelin (1-5)-amide (peptide)
peptide: GSS(Octanoyl)[dF]K-NH2
modifications: N-terminus assumed
SMILES: CCCCCCCC(=O)OC[C@H](NC(=O)[C@H](CO)NC(=O)CN)C(=O)N[C@H](Cc1ccccc1)C(=O)N[C@@H](CCCCN)C(N)=O
B9: [N-Glycyl]-Ghrelin (3-7)-amide (peptide)
peptide: GS(Octanoyl)FLSP-NH2
modifications: N-terminus assumed
SMILES: CCCCCCCC(=O)OC[C@H](NC(=O)CN)C(=O)N[C@@H](Cc1ccccc1)C(=O)N[C@@H](CC(C)C)C(=O)N[C@@H](CO)C(=O)N1CCC[C@H]1C(N)=O
B10: [His^2]-Ghrelin (1-7)-amide (peptide)
peptide: GHS(Octanoyl)FLSP-NH2
modifications: N-terminus assumed
SMILES: CCCCCCCC(=O)OC[C@H](NC(=O)[C@H](Cc1c[nH]cn1)NC(=O)CN)C(=O)N[C@@H](Cc1ccccc1)C(=O)N[C@@H](CC(C)C)C(=O)N[C@@H](CO)C(=O)N1CCC[C@H]1C(N)=O
B11: [Lys^2]-Ghrelin (1-7)-amide (peptide)
peptide: GKS(Octanoyl)FLSP-NH2
modifications: N-terminus assumed
SMILES: CCCCCCCC(=O)OC[C@H](NC(=O)[C@H](CCCCN)NC(=O)CN)C(=O)N[C@@H](Cc1ccccc1)C(=O)N[C@@H](CC(C)C)C(=O)N[C@@H](CO)C(=O)N1CCC[C@H]1C(N)=O
B12: [Gly^2]-Ghrelin (1-7)-amide (peptide)
peptide: GGS(Octanoyl)FLSP-NH2
modifications: N-terminus assumed
SMILES: CCCCCCCC(=O)OC[C@H](NC(=O)CNC(=O)CN)C(=O)N[C@@H](Cc1ccccc1)C(=O)N[C@@H](CC(C)C)C(=O)N[C@@H](CO)C(=O)N1CCC[C@H]1C(N)=O
B13: [Cys^3(Octyl)]-Ghrelin (1-7)-amide (peptide)
peptide: GSC(Octyl)FLSP-NH2
modifications: N-terminus assumed
SMILES: CCCCCCCCSC[C@H](NC(=O)[C@H](CO)NC(=O)CN)C(=O)N[C@@H](Cc1ccccc1)C(=O)N[C@@H](CC(C)C)C(=O)N[C@@H](CO)C(=O)N1CCC[C@H]1C(N)=O
B14: [Cys^3(Octyl),^DPhe^4]-Ghrelin (1-7)-amide (peptide)
peptide: GSC(Octyl)[dF]LSP-NH2
modifications: N-terminus assumed
SMILES: CCCCCCCCSC[C@H](NC(=O)[C@H](CO)NC(=O)CN)C(=O)N[C@H](Cc1ccccc1)C(=O)N[C@@H](CC(C)C)C(=O)N[C@@H](CO)C(=O)N1CCC[C@H]1C(N)=O
B15: [Dap^3(Octanoyl)]-hGhrelin (peptide)
peptide: GSXFLSPEHQRVQQRKESKKPPAKLQPR
modifications: position 3 (X) is L-2,3-diaminopropionic acid (Dap) with N-octanoyl side chain (CH2NHCO-C7H15)
B16: Ghrelin (1-8)-amide (peptide)
peptide: GSS(Octanoyl)FLSPE-NH2
modifications: N-terminus assumed
SMILES: CCCCCCCC(=O)OC[C@H](NC(=O)[C@H](CO)NC(=O)CN)C(=O)N[C@@H](Cc1ccccc1)C(=O)N[C@@H](CC(C)C)C(=O)N[C@@H](CO)C(=O)N1CCC[C@H]1C(=O)N[C@@H](CCC(=O)O)C(N)=O
B17: Ghrelin (1-7)-amide (peptide)
peptide: GSS(Octanoyl)FLSP-NH2
modifications: N-terminus assumed
SMILES: CCCCCCCC(=O)OC[C@H](NC(=O)[C@H](CO)NC(=O)CN)C(=O)N[C@@H](Cc1ccccc1)C(=O)N[C@@H](CC(C)C)C(=O)N[C@@H](CO)C(=O)N1CCC[C@H]1C(N)=O
B18: Ghrelin (1-6)-amide (peptide)
peptide: GSS(Octanoyl)FLS-NH2
modifications: N-terminus assumed
SMILES: CCCCCCCC(=O)OC[C@H](NC(=O)[C@H](CO)NC(=O)CN)C(=O)N[C@@H](Cc1ccccc1)C(=O)N[C@@H](CC(C)C)C(=O)N[C@@H](CO)C(N)=O
B19: Ghrelin (1-5)-amide (peptide)
peptide: GSS(Octanoyl)FL-NH2
modifications: N-terminus assumed
SMILES: CCCCCCCC(=O)OC[C@H](NC(=O)[C@H](CO)NC(=O)CN)C(=O)N[C@@H](Cc1ccccc1)C(=O)N[C@@H](CC(C)C)C(N)=O
B20: Ghrelin (1-4)-amide (peptide)
peptide: GSS(Octanoyl)F-NH2
modifications: N-terminus assumed
SMILES: CCCCCCCC(=O)OC[C@H](NC(=O)[C@H](CO)NC(=O)CN)C(=O)N[C@@H](Cc1ccccc1)C(N)=O

biological target: T1, rat GHS-R (GHS receptor) expressed on CHO-GHSR62 cells (rat, UniProt O08725 1-364); assay: cell-based or functional assay
T1 sequence (O08725 whole entry): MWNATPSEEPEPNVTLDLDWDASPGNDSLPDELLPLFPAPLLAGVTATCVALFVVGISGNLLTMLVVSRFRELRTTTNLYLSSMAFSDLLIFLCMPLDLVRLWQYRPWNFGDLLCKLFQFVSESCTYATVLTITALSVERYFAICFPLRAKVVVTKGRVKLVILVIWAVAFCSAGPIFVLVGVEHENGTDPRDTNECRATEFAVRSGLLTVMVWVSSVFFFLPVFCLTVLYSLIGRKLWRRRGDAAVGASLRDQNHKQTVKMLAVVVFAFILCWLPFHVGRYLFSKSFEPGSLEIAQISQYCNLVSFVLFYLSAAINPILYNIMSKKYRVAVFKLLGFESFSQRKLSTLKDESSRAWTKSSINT

GSS(Octanoyl)FLSPEHQR [hGhrelin (1-11)] and GSS(Octanoyl)FLSPEHQK [rGhrelin (1-11)] are the same in “Ca-releasing activity (EC50, nM)” value: 15 nM for the first, 15 nM for the second.

biological target: rat GHS-R (GHS receptor) expressed on CHO-GHSR62 cells (rat) (UniProt O08725); assay: cell-based or functional assay
Sequence (O08725 whole entry): as above

Going from GSXFLSPEHQRVQQRKESKKPPAKLQPR (position 3 (X) is norleucine (Nle)) [[Nle^3]-hGhrelin] to B1, the Activity EC50 falls from 2.8 µM to 0.011 µM (250-fold).

B2 and B3 are within 1.5-fold of each other in Activity EC50: 0.034 µM for the first, 0.038 µM for the second.

Compared with GSXFLSPEHQRVQQRKESKKPPAKLQPR (position 3 (X) is 2-L-naphthylalanine (Nal)) [[2-^LNal^3]-hGhrelin], GSDFLSPEHQRVQQRKESKKPPAKLQPR (Asp 3 side-chain heptyl ester (O-C7H15)) [[Asp^3(O-Heptyl)]-hGhrelin] is 1.6-fold lower in Activity EC50: 0.0082 µM for the first, 0.0051 µM for the second.

First: GSDFLSPEHQRVQQRKESKKPPAKLQPR (Asp 3 side-chain heptylamide (NH-C7H15)) [[Asp^3(NH-Heptyl)]-hGhrelin]
Second: B15
The Activity EC50 of the first is 4.2-fold higher: 0.011 µM for the first, 0.0026 µM for the second.

Going from GSC(S‑heptyl)FLSPEHQRVQQRKESKKPPAKLQPR [[Cys^3(S-Heptyl)]-hGhrelin] to GSXFLSPEHQRVQQRKESKKPPAKLQPR (position 3 (X) is 2-aminododecanoic acid (Adod; side chain n-C10H21)) [[Adod^3]-hGhrelin], the Activity EC50 falls from 0.0014 µM to 0.00091 µM (1.5-fold).

Compared with GST(Octanoyl)FLSPEHQRVQQRKESKKPPAKLQPR [[Thr^3(Octanoyl)]-hGhrelin], GSXFLSPEHQRVQQRKESKKPPAKLQPR (position 3 (X) is cyclohexylalanine (Cha)) [[Cha^3]-hGhrelin] is 1.9-fold higher in Activity EC50: 0.01 µM for the first, 0.019 µM for the second.

Compared with GSXFLSPEHQRVQQRKESKKPPAKLQPR (position 3 (X) is 2-D-naphthylalanine (D-Nal)) [[2-^DNal^3]-hGhrelin], GSC(Trt)FLSPEHQRVQQRKESKKPPAKLQPR [[Cys^3(Trityl)]-hGhrelin] is lower in Activity EC50: > 10 µM for the first, 0.02 µM for the second.

First: GSC(Octyl)FLSPEHQKAQQRKESKKPPAKLQPR [[Cys^3(Octyl)]-rGhrelin]
Second: B4
The Ca-releasing activity EC50 of the first is 4.9-fold higher: 0.0054 µM for the first, 0.0011 µM for the second.

First: B5
Second: B6
The Ca-releasing activity EC50 of the first is 11-fold lower: 0.0011 µM for the first, 0.012 µM for the second.

Going from B7 to B8, the Ca-releasing activity EC50 rises from 0.01 µM to 1.7 µM (170-fold).

First: YGSS(Octanoyl)FLSPEHQKAQQRKESKKPPAKLQPR [[N-Tyr]-rGhrelin]
Second: B9
The Ca-releasing activity EC50 of the first is 3.2-fold lower: 0.12 µM for the first, 0.38 µM for the second.

B10 and B11 are within 1.5-fold of each other in Ca-releasing activity EC50: 0.035 µM for the first, 0.024 µM for the second.

First: B12
Second: B13
The Ca-releasing activity EC50 of the first is 11-fold higher: 0.078 µM for the first, 0.0074 µM for the second.

With B14 the Ca-releasing activity EC50 was 3 µM.

Compared with GSC(Octyl)FLSPEHQKAQQRKESKKPPAKLQPR [[Cys^3(Octyl)]-rGhrelin], GSXFLSPEHQRVQQRKESKKPPAKLQPR (position 3 (X) is 2-L-naphthylalanine (Nal)) [[2-^LNal^3]-hGhrelin] is 1.5-fold higher in EC50 value: 0.0054 µM for the first, 0.0082 µM for the second.

biological target: T1, rat GHS-R (GHS receptor) expressed on …; assay: cell-based or functional assay; remark: another data set of the same source

GSS(Octanoyl)FLSPEHQR [hGhrelin (1-11)] and GSS(Octanoyl)FLSPEHQK [rGhrelin (1-11)] are the same in “Ca-releasing activity EC50” value: 0.015 µM for the first, 0.015 µM for the second.

Compared with B16, B17 is 5-fold lower in “Ca-releasing activity EC50” value: 0.013 µM for the first, 0.0026 µM for the second.

Compared with B18, GSS(Octanoyl)FL [Ghrelin (1-5)] is 14-fold higher in “Ca-releasing activity EC50” value: 0.0048 µM for the first, 0.068 µM for the second.

First: B19
Second: B20
The “Ca-releasing activity EC50” value of the first is 26-fold lower: 0.0062 µM for the first, 0.16 µM for the second.

Gly-Ser-Ser(Octanoyl)-NH2 (N-terminus assumed; SMILES CCCCCCCC(=O)OC[C@H](NC(=O)[C@H](CO)NC(=O)CN)C(N)=O) [Ghrelin (1-3)-amide] was tested, and the “Ca-releasing activity EC50” value was > 10 µM.
